B1: CDC25A (parent)
chain: QLIDPDENKENEAFEFKKPVRPVS

Variants of: B1
Test: protein stability index of a GFP-peptide fusion (GPS, HEK-293T) (PSI 1-6); higher = more stable
Details: c terminus: a fixed tail appended
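Also: lentivirally expressed fusions sorted by FACS into six bins by GFP to DsRed ratio, PSI derived from sequencing read proportions per bin multiplied by bin number.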

Q: Which protein stability index does the source give for QLIDPDENKNNEAFEFKKPVRPVS [E10N] here?
A: 3.78

Q: For QLIDPDENKVNEAFEFKKPVRPVS [E10V], which protein stability index is on record?
A: 3.36

Q: Which protein stability index does the source give for QLIDPDENKKNEAFEFKKPVRPVS [E10K] here?
A: 4.35

Q: With QLIDPDENKWNEAFEFKKPVRPVS [E10W] as the variant, how does the protein stability index read?
A: 4.02

Q: For QLIDPDENKMNEAFEFKKPVRPVS [E10M], which protein stability index is on record?
A: 3.71

Q: With QLIDPDENKRNEAFEFKKPVRPVS [E10R] as the variant, how does the protein stability index read?
A: 4.43

Q: For QLIDPDENKENEAQEFKKPVRPVS [F14Q], which protein stability index is on record?
A: 3.94

Q: For QLIDPDENKENEAIEFKKPVRPVS [F14I], which protein stability index is on record?
A: 4.04

Q: With QLIDPDENKENEALEFKKPVRPVS [F14L] as the variant, how does the protein stability index read?
A: 4.21

Q: Which protein stability index does the source give for QLIDPDENKENEAGEFKKPVRPVS [F14G] here?
A: 4.53

Q: Which protein stability index does the source give for QLIDPDENKENEAMEFKKPVRPVS [F14M] here?
A: 3.8

Q: With QLIDPDENKENEAHEFKKPVRPVS [F14H] as the variant, how does the protein stability index read?
A: 4.42

Q: For QLIDPDEEKENEAFEFKKPVRPVS [N8E], which protein stability index is on record?
A: 3.95

Q: For QLIDPDEKKENEAFEFKKPVRPVS [N8K], which protein stability index is on record?
A: 4.5

Q: For QLIDPDEHKENEAFEFKKPVRPVS [N8H], which protein stability index is on record?
A: 4.59

Q: With QLIDPDEYKENEAFEFKKPVRPVS [N8Y] as the variant, how does the protein stability index read?
A: 3.59

Q: With QLIDPDETKENEAFEFKKPVRPVS [N8T] as the variant, how does the protein stability index read?
A: 4.61

Q: With QLIDPDERKENEAFEFKKPVRPVS [N8R] as the variant, how does the protein stability index read?
A: 4.86

Q: Which protein stability index does the source give for QLIDPDENKENEAFEFKKPRRPVS [V20R] here?
A: 3.73

Q: Which protein stability index does the source give for QLIDPDENKENEAFEFKKPPRPVS [V20P] here?
A: 4.43

Q: For QLIDPDENKENEAFEFKKPIRPVS [V20I], which protein stability index is on record?
A: 4

Q: For QLIDPDENKENEAFEFKKPERPVS [V20E], which protein stability index is on record?
A: 4.04

Q: For QLIDPDENKENEAFEFKKPTRPVS [V20T], which protein stability index is on record?
A: 4.54

Q: Which protein stability index does the source give for QLIDPDENKENEAFEFKKPCRPVS [V20C] here?
A: 3.61

Q: With QLIDPDENKENEAFEFKKPGRPVS [V20G] as the variant, how does the protein stability index read?
A: 3.97

Q: Which protein stability index does the source give for QLIDPDENKENEAFEFKKPVAPVS [R21A] here?
A: 3.27

Q: Which protein stability index does the source give for QLIDPDENKENEAFEFKKPVEPVS [R21E] here?
A: 4.33

Q: For QLIDPDENKENEAFEFKKPVNPVS [R21N], which protein stability index is on record?
A: 5

Q: For QLIDPDENKENEAFEFKKPVLPVS [R21L], which protein stability index is on record?
A: 3.8

Q: Which protein stability index does the source give for QLIDPDENKENEAFEFKKPVDPVS [R21D] here?
A: 4.25

Q: Which protein stability index does the source give for QLIDPDENKECEAFEFKKPVRPVS [N11C] here?
A: 4.23

Q: With QLIDPDENKETEAFEFKKPVRPVS [N11T] as the variant, how does the protein stability index read?
A: 4.99

Q: For QLIDPDENKEEEAFEFKKPVRPVS [N11E], which protein stability index is on record?
A: 4.22

Q: Which protein stability index does the source give for QLIDPDENKEIEAFEFKKPVRPVS [N11I] here?
A: 4.53

Q: For QLIDPDENKESEAFEFKKPVRPVS [N11S], which protein stability index is on record?
A: 4.22

Q: For QLIDPDENKEVEAFEFKKPVRPVS [N11V], which protein stability index is on record?
A: 4.63

Q: For QLIDPDTNKENEAFEFKKPVRPVS [E7T], which protein stability index is on record?
A: 4.15

Q: For QLIDPDINKENEAFEFKKPVRPVS [E7I], which protein stability index is on record?
A: 4.06

Q: With QLIDPDYNKENEAFEFKKPVRPVS [E7Y] as the variant, how does the protein stability index read?
A: 3.45

Q: With QLIDPDLNKENEAFEFKKPVRPVS [E7L] as the variant, how does the protein stability index read?
A: 3.33

Q: Which protein stability index does the source give for QLIDPDHNKENEAFEFKKPVRPVS [E7H] here?
A: 3.94

Q: For LLIDPDENKENEAFEFKKPVRPVS [Q1L], which protein stability index is on record?
A: 2.93

Q: For ILIDPDENKENEAFEFKKPVRPVS [Q1I], which protein stability index is on record?
A: 3.39

Q: With TLIDPDENKENEAFEFKKPVRPVS [Q1T] as the variant, how does the protein stability index read?
A: 3.58

Q: Which protein stability index does the source give for QLIDFDENKENEAFEFKKPVRPVS [P5F] here?
A: 2.88

Q: With QLIDYDENKENEAFEFKKPVRPVS [P5Y] as the variant, how does the protein stability index read?
A: 2.85

Q: With QLIDNDENKENEAFEFKKPVRPVS [P5N] as the variant, how does the protein stability index read?
A: 4.06

Q: With QLIDSDENKENEAFEFKKPVRPVS [P5S] as the variant, how does the protein stability index read?
A: 3.25

Q: For QLIDQDENKENEAFEFKKPVRPVS [P5Q], which protein stability index is on record?
A: 3.87

Q: With QLIDRDENKENEAFEFKKPVRPVS [P5R] as the variant, how does the protein stability index read?
A: 3.66

Q: With QLIDKDENKENEAFEFKKPVRPVS [P5K] as the variant, how does the protein stability index read?
A: 3.95

Q: For QLIDPDENKENEQFEFKKPVRPVS [A13Q], which protein stability index is on record?
A: 4.02

Q: For QLIDPDENKENELFEFKKPVRPVS [A13L], which protein stability index is on record?
A: 3.73

Q: For QLIDPDENKENEFFEFKKPVRPVS [A13F], which protein stability index is on record?
A: 3.02

Q: For QLIDPDENKENEYFEFKKPVRPVS [A13Y], which protein stability index is on record?
A: 3.99

Q: For QLIDPDENKENEKFEFKKPVRPVS [A13K], which protein stability index is on record?
A: 3.63

Q: Which protein stability index does the source give for QLIDPDENKENEAFEFKKGVRPVS [P19G] here?
A: 4.06

Q: Which protein stability index does the source give for QLIDPDENKENEAFEFKKCVRPVS [P19C] here?
A: 3.6

Q: Which protein stability index does the source give for QLIDPDENKENEAFEFKKAVRPVS [P19A] here?
A: 4.44

Q: With QLIDPDENKENEAFEFKKFVRPVS [P19F] as the variant, how does the protein stability index read?
A: 4.44

Q: Which protein stability index does the source give for QLIDPDENKENEAFEFKKLVRPVS [P19L] here?
A: 3.52

Q: Which protein stability index does the source give for QLIDPDENKENEAFEFKKIVRPVS [P19I] here?
A: 4.07

Q: Which protein stability index does the source give for QLIDPDENTENEAFEFKKPVRPVS [K9T] here?
A: 4

Q: For QLIDPDENWENEAFEFKKPVRPVS [K9W], which protein stability index is on record?
A: 3.82

Q: Which protein stability index does the source give for QLIDPDENSENEAFEFKKPVRPVS [K9S] here?
A: 4.39

Q: With QLIDPDENMENEAFEFKKPVRPVS [K9M] as the variant, how does the protein stability index read?
A: 4.09

Q: For QLIDPDENCENEAFEFKKPVRPVS [K9C], which protein stability index is on record?
A: 4.54

Q: For QLIDPDENEENEAFEFKKPVRPVS [K9E], which protein stability index is on record?
A: 4.62

Q: For QLIDPDENYENEAFEFKKPVRPVS [K9Y], which protein stability index is on record?
A: 5.01

Q: For QLFDPDENKENEAFEFKKPVRPVS [I3F], which protein stability index is on record?
A: 3.91

Q: Which protein stability index does the source give for QLDDPDENKENEAFEFKKPVRPVS [I3D] here?
A: 4.64

Q: Which protein stability index does the source give for QLIDPDENKENEAFEFKSPVRPVS [K18S] here?
A: 4.55

Q: With QLIDPDENKENEAFEFKIPVRPVS [K18I] as the variant, how does the protein stability index read?
A: 3.97

Q: With QLIDPDENKENEAFEFKRPVRPVS [K18R] as the variant, how does the protein stability index read?
A: 3.89

Q: With QLIDPDENKENEAFEFKMPVRPVS [K18M] as the variant, how does the protein stability index read?
A: 3.66

Q: For QLIDPDENKENEAFEFKCPVRPVS [K18C], which protein stability index is on record?
A: 4.1

Q: For QLIDPDENKENEAFEFKLPVRPVS [K18L], which protein stability index is on record?
A: 4.39

Q: For QLIDPDENKENGAFEFKKPVRPVS [E12G], which protein stability index is on record?
A: 4.61

Q: Which protein stability index does the source give for QLIDPDENKENHAFEFKKPVRPVS [E12H] here?
A: 3.21

Q: For QLIDPDENKENMAFEFKKPVRPVS [E12M], which protein stability index is on record?
A: 2.78

Q: Which protein stability index does the source give for QLIDPDENKENSAFEFKKPVRPVS [E12S] here?
A: 4.16

Q: For QLIDPDENKENWAFEFKKPVRPVS [E12W], which protein stability index is on record?
A: 3.19

Q: For QLIDPDENKENCAFEFKKPVRPVS [E12C], which protein stability index is on record?
A: 3.55

Q: Which protein stability index does the source give for QLIDPNENKENEAFEFKKPVRPVS [D6N] here?
A: 4.4

Q: For QLIDPPENKENEAFEFKKPVRPVS [D6P], which protein stability index is on record?
A: 4.53

Q: With QLIDPTENKENEAFEFKKPVRPVS [D6T] as the variant, how does the protein stability index read?
A: 3.87

Q: For QLIDPWENKENEAFEFKKPVRPVS [D6W], which protein stability index is on record?
A: 3.59

Q: Which protein stability index does the source give for QLIDPQENKENEAFEFKKPVRPVS [D6Q] here?
A: 4.6

Q: With QLIDPVENKENEAFEFKKPVRPVS [D6V] as the variant, how does the protein stability index read?
A: 3.83

Q: For QLIDPFENKENEAFEFKKPVRPVS [D6F], which protein stability index is on record?
A: 3.88

Q: For QLIDPDENKENEAFEAKKPVRPVS [F16A], which protein stability index is on record?
A: 4.03

Q: Which protein stability index does the source give for QLIDPDENKENEAFENKKPVRPVS [F16N] here?
A: 4.08

Q: For QLIDPDENKENEAFEWKKPVRPVS [F16W], which protein stability index is on record?
A: 4.33

Q: For QLIDPDENKENEAFEKKKPVRPVS [F16K], which protein stability index is on record?
A: 3.99

— the supplement of paper PMC10567573
